Earlier results as cited in paper PMC7990104.
Like-named read-outs stand apart in the source and are kept apart here.

Columns and labels:
[1] = target: PYL3 (Arabidopsis thaliana) (UniProt Q9SSM7)
[2] = target: PYL3 (Arabidopsis thaliana) (UniProt Q9SSM7); remark: listed apart in the source

In the case of PYL3 (from UniProt Q9SSM7), the Kd [1] is given as 52 µM and the Kd [2] is given as 7.76 µM.
